Experimental data published in the supplement of paper PMC10126150.
± gives the standard deviation of the averaged measurements.

tested on: ATP; assay: switch fluorescence ratio, 500 uM ATP over buffer (Cy3 cluster intensity, sum of 5 cycles each) (fold (ratio)); higher = stronger signal-on switching upon ATP binding; sequences stand for … in TCGTCGGCAGCGTCAGATGTGTATAAGAGACAGTTTTTTTTTTTTTTTTTTTTTTTTT…TC; conditions: aptamer strand: ATP DNA aptamer (quencher-CACCTGGGGGAGTATTGCGGAGGAAGG + anchor), 100 nM annealed; ATP concentration: 500 uM
Procedure, shortened: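 Cy3-labelled switching-strand clusters on a modified Illumina MiSeq flow-cell were annealed to 100 nM quencher-labelled ATP aptamer and imaged first in selection buffer, then after 15 min with 500 uM ATP at 22 °C. NaOH stripping and re-annealing separated each of five buffer/ATP cycles, and clusters outside 100-1000 RFU were excluded. The fluorescence ratio sums target-cycle Cy3 intensity over buffer-cycle Cy3 intensity per cluster and averages it per switch-domain sequence.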
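Note: ATP exposure 15 min at 22 °C before imaging.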

Going from CTCCTCAGTG to CTCGAGAGCT, the switch fluorescence ratio falls from 2.26 ± 0.29 to 0.973 ± 0.018.

CTCGATAGGA and CTCGATGTGG are within error of each other in switch fluorescence ratio: 1.02 ± 0.0083 for the first, 0.985 ± 0.044 for the second.

First: CTCGCACGTT
Second: CTCGCAGGAA
The switch fluorescence ratio of the first is lower: 1.03 ± 0.032 for the first, 1.75 ± 0.078 for the second.

CTCGCGTTAA and CTCGCTAGGA are within error of each other in switch fluorescence ratio: 1.11 ± 0.13 for the first, 1.05 ± 0.019 for the second.

CTCGCTCGTG and CTCGCTTTTT are within error of each other in switch fluorescence ratio: 1.03 ± 0.016 for the first, 1.2 ± 0.29 for the second.

Going from CTCGGAACTA to CTCGGACAAG, the switch fluorescence ratio falls from 1.04 ± 0.03 to 0.9964 ± 0.0058.

CTCGGCCGGC and CTCGGGACTT are within error of each other in switch fluorescence ratio: 0.982 ± 0.049 for the first, 0.9884 ± 0.0024 for the second.

CTCGGGAGTA and CTCGGGCACG are within error of each other in switch fluorescence ratio: 1 ± 0.042 for the first, 0.989 ± 0.046 for the second.

First: CTCGGGGAGT
Second: CTCGGTTGAC
The switch fluorescence ratio of the first is lower: 1.012 ± 0.0064 for the first, 1.07 ± 0.015 for the second.

CTCGGTTGGT and CTCGTACTTA are within error of each other in switch fluorescence ratio: 1.006 ± 0.0083 for the first, 1 ± 0.019 for the second.

Going from CTCGTCAATT to CTCGTCACTC, the switch fluorescence ratio falls from 1.52 ± 0.24 to 1.232 ± 0.0097.

CTCGTGTGTG and CTCGTTCCGG are within error of each other in switch fluorescence ratio: 1.044 ± 0.0073 for the first, 0.997 ± 0.043 for the second.

Going from CTCGTTTTTG to CTCTACAGGG, the switch fluorescence ratio rises from 0.972 ± 0.012 to 1.04 ± 0.042.

Going from CTCTGAGGTT to CTCTGCGGTT, the switch fluorescence ratio rises from 1 ± 0.035 to 1.891 ± 0.0039.

Going from CTCTGTGTTA to CTCTTAAGGG, the switch fluorescence ratio falls from 1.06 ± 0.015 to 1.01 ± 0.018.

CTCTTGAATA and CTCTTTGCC are within error of each other in switch fluorescence ratio: 0.9957 ± 0.0015 for the first, 1.17 ± 0.27 for the second.

CTGAAAAATT and CTGAAAGAGT are within error of each other in switch fluorescence ratio: 1.01 ± 0.078 for the first, 0.976 ± 0.026 for the second.

CTGAAAGGGA and CTGAACTTTA are within error of each other in switch fluorescence ratio: 1.01 ± 0.02 for the first, 1.04 ± 0.043 for the second.

Going from CTGAAGCTCA to CTGAAGGGAC, the switch fluorescence ratio falls from 1.91 ± 0.044 to 1.15 ± 0.036.

CTGAAGGGCT and CTGAATATTC are within error of each other in switch fluorescence ratio: 1.04 ± 0.017 for the first, 1.021 ± 0.0036 for the second.

Going from CTGAATCCGT to CTGAATTAGT, the switch fluorescence ratio falls from 1.25 ± 0.036 to 1.01 ± 0.019.

CTGACTGCAG and CTGAGGATCG are within error of each other in switch fluorescence ratio: 1.01 ± 0.049 for the first, 0.994 ± 0.034 for the second.

CTGAGGCCCG and CTGAGGGCTG are within error of each other in switch fluorescence ratio: 0.984 ± 0.05 for the first, 1.03 ± 0.028 for the second.

CTGAGGGGCG and CTGAGGGGGG are within error of each other in switch fluorescence ratio: 1.04 ± 0.057 for the first, 0.985 ± 0.019 for the second.

CTGAGTATGT and CTGAGTCGTG are within error of each other in switch fluorescence ratio: 0.988 ± 0.015 for the first, 1 ± 0.066 for the second.

CTGAGTGGGA and CTGATAACAT are the same in switch fluorescence ratio: 1.02 ± 0.013 for the first, 1.02 ± 0.018 for the second.

CTGATGAGAG and CTGATGTCGT are within error of each other in switch fluorescence ratio: 0.997 ± 0.051 for the first, 1.01 ± 0.033 for the second.

First: CTGATTCAGA
Second: CTGCAACAGA
The switch fluorescence ratio of the first is lower: 0.98 ± 0.019 for the first, 1.0455 ± 0.00015 for the second.

First: CTGCAACGGA
Second: CTGCACCATG
The switch fluorescence ratio of the first is higher: 1.13 ± 0.056 for the first, 1.01 ± 0.028 for the second.

Going from CTGCCAATGG to CTGCCAGATG, the switch fluorescence ratio falls from 1.99 ± 0.053 to 1.1 ± 0.054.

CTGCCCGGCG and CTGCGGGGAT are within error of each other in switch fluorescence ratio: 1.03 ± 0.027 for the first, 1.02 ± 0.027 for the second.

CTGCGGGGGG and CTGCGGGGGT are within error of each other in switch fluorescence ratio: 0.999 ± 0.015 for the first, 1.03 ± 0.038 for the second.

Compared with CTGCGTGCGG, CTGCGTGGAG is higher in switch fluorescence ratio: 0.99635 ± 0.00049 for the first, 1.03 ± 0.026 for the second.

Going from CTGCTACAGT to CTGCTCCGAT, the switch fluorescence ratio rises from 1.03 ± 0.02 to 1.21 ± 0.034.

Going from CTGGAAAACC to CTGGAACAGT, the switch fluorescence ratio falls from 1.02 ± 0.0058 to 0.976 ± 0.015.

Compared with CTGGAATAGC, CTGGAATGGG is lower in switch fluorescence ratio: 2.21 ± 0.3 for the first, 1.02 ± 0.056 for the second.

Going from CTGGACTTAC to CTGGAGACAG, the switch fluorescence ratio falls from 1.34 ± 0.052 to 1.07 ± 0.018.

CTGGATTTAA and CTGGCGCGGG are the same in switch fluorescence ratio: 1.0192 ± 7.7e-05 for the first, 1.02 ± 0.042 for the second.

CTGGCTACGG and CTGGCTGCGG are the same in switch fluorescence ratio: 1.01 ± 0.032 for the first, 1.01 ± 0.039 for the second.

CTGGGACCTA and CTGGGAGAGC are within error of each other in switch fluorescence ratio: 1.02 ± 0.027 for the first, 1.05 ± 0.053 for the second.

First: CTGGGAGTGT
Second: CTGGGATTTT
The switch fluorescence ratio of the first is higher: 0.9946 ± 0.0092 for the first, 0.959 ± 0.0021 for the second.

CTGGGCAGGG and CTGGGCGGTT are within error of each other in switch fluorescence ratio: 1.02 ± 0.055 for the first, 0.9959 ± 0.0017 for the second.

CTGGGGAAAC and CTGGGGAAAG are within error of each other in switch fluorescence ratio: 1.03 ± 0.064 for the first, 1.02 ± 0.033 for the second.

First: CTGGGGACCT
Second: CTGGGGAGGA
The switch fluorescence ratio of the first is higher: 1.1 ± 0.066 for the first, 0.997 ± 0.028 for the second.

CTGGGGAGGC and CTGGGGCAGA are within error of each other in switch fluorescence ratio: 1.06 ± 0.041 for the first, 1.02 ± 0.011 for the second.

Compared with CTGGGGGCAA, CTGGGGGTAA is lower in switch fluorescence ratio: 3.2 ± 0.68 for the first, 0.992 ± 0.02 for the second.

CTGGGGGTAG and CTGGGGGTTG are within error of each other in switch fluorescence ratio: 1.01 ± 0.016 for the first, 0.989 ± 0.044 for the second.

CTGGGTCGGG and CTGGGTGGGC are within error of each other in switch fluorescence ratio: 0.992 ± 0.0079 for the first, 0.993 ± 0.018 for the second.

CTGGGTGTGC and CTGGTACAGA are within error of each other in switch fluorescence ratio: 1.01 ± 0.02 for the first, 0.97 ± 0.13 for the second.

CTGGTATTTG and CTGGTCACAG are within error of each other in switch fluorescence ratio: 1.05 ± 0.041 for the first, 1 ± 0.024 for the second.

Going from CTGGTCATCT to CTGGTCGGCT, the switch fluorescence ratio rises from 0.991 ± 0.011 to 1.09 ± 0.014.

Going from CTGGTCTATT to CTGGTGATTT, the switch fluorescence ratio rises from 0.968 ± 0.017 to 1.05 ± 0.053.

CTGGTGCCGA and CTGGTGGGGT are within error of each other in switch fluorescence ratio: 0.985 ± 0.015 for the first, 1.02 ± 0.044 for the second.

Compared with CTGGTGTCGA, CTGGTTACAC is higher in switch fluorescence ratio: 0.978 ± 0.013 for the first, 1.03 ± 0.033 for the second.

CTGGTTAGGA and CTGGTTAGGC are within error of each other in switch fluorescence ratio: 1 ± 0.066 for the first, 1.01 ± 0.034 for the second.

CTGGTTTGCC and CTGGTTTGGA are within error of each other in switch fluorescence ratio: 0.974 ± 0.048 for the first, 1 ± 0.022 for the second.

First: CTGTAAGCGG
Second: CTGTAATTGT
The switch fluorescence ratio of the first is higher: 1.03 ± 0.03 for the first, 0.98817 ± 0.00075 for the second.

CTGTACAAGC and CTGTACGACA are within error of each other in switch fluorescence ratio: 1.15 ± 0.03 for the first, 1.18 ± 0.02 for the second.

Going from CTGTACTGGG to CTGTAGGGAC, the switch fluorescence ratio rises from 0.9989 ± 0.0061 to 1.18 ± 0.025.

First: CTGTAGTAGC
Second: CTGTATATGG
The switch fluorescence ratio of the first is higher: 2.38 ± 1.1 for the first, 0.985 ± 0.042 for the second.

Compared with CTGTATATTT, CTGTATTACG is higher in switch fluorescence ratio: 0.9593 ± 0.0055 for the first, 0.995 ± 0.027 for the second.

CTGTATTATA and CTGTATTCTG are within error of each other in switch fluorescence ratio: 0.996 ± 0.031 for the first, 0.962 ± 0.015 for the second.

CTGTCAACGG and CTGTCATTTG are within error of each other in switch fluorescence ratio: 1.02 ± 0.017 for the first, 0.985 ± 0.03 for the second.

Compared with CTGTCCTAAT, CTGTCCTAGG is higher in switch fluorescence ratio: 1.009 ± 0.0049 for the first, 1.036 ± 0.0033 for the second.

CTGTCGACTT and CTGTCGCTTA are within error of each other in switch fluorescence ratio: 0.986 ± 0.011 for the first, 1.01 ± 0.019 for the second.

CTGTCGTGTC and CTGTGACCGT are within error of each other in switch fluorescence ratio: 0.9934 ± 0.003 for the first, 1.02 ± 0.025 for the second.

CTGTGCGTGG and CTGTGGCTAT are within error of each other in switch fluorescence ratio: 0.973 ± 0.029 for the first, 1.01 ± 0.023 for the second.

Compared with CTGTGGCTCG, CTGTGGCTGG is lower in switch fluorescence ratio: 0.9986 ± 0.0057 for the first, 0.9795 ± 0.0073 for the second.

CTGTGGGTTA and CTGTGTGGCC are within error of each other in switch fluorescence ratio: 0.9595 ± 0.004 for the first, 0.968 ± 0.073 for the second.

CTGTGTGTTA and CTGTGTTTGG are within error of each other in switch fluorescence ratio: 0.9816 ± 0.0036 for the first, 0.997 ± 0.038 for the second.

CTGTTAAAGG and CTGTTGCCTG are within error of each other in switch fluorescence ratio: 0.999 ± 0.013 for the first, 0.974 ± 0.041 for the second.

Going from CTGTTGGGTC to CTGTTTAGGG, the switch fluorescence ratio rises from 0.97927 ± 0.00013 to 1.01 ± 0.018.

Compared with CTGTTTGTTG, CTTAAAAATT is higher in switch fluorescence ratio: 0.9707 ± 0.0013 for the first, 0.9777 ± 0.0031 for the second.

CTTAACGGCG and CTTAATCTC are the same in switch fluorescence ratio: 0.968 ± 0.044 for the first, 0.968 ± 0.02 for the second.

CTTACAGCTA and CTTACGGGGT are the same in switch fluorescence ratio: 1.097 ± 0.0016 for the first, 1.1 ± 0.093 for the second.

CTTACGGGTC and CTTACTAGC are within error of each other in switch fluorescence ratio: 0.9901 ± 0.005 for the first, 1.02 ± 0.029 for the second.

For CTTAGACCCC, the switch fluorescence ratio was 1.01 ± 0.02.
